Data taken from patent US20160272683A1 (Novo Nordisk, published 2016).
Numbered stars: 1 amine (or outer) side, 2 acyl side, 3 side chain; on linkers, the order of the positions; unused ones are H or OH. * marks the point of attachment. C20 diacid = O=C(O)CCCCCCCCCCCCCCCCCCC(=O)*; γGlu = O=C(O)[C@H](CCC(=O)[*:2])N[*:1]; AEEA = NCCOCCOCC(=O)O

Tests used:
[1] = molecular target: T1, human amylin receptor (amylin 3(a) receptor: human calcitonin receptor with RAMP-3) (human, UniProt P30988 25-474; O60896 24-148, limits assumed); assay: SPA competition vs 125I-rat amylin, membranes with human CTR + RAMP-3 (Assay V)
T1 construct: whole, on cells; Assay V: membranes of the Amylin 3(a)/CRE-luc BHK cells on SPA beads; also called hAmylin-R
T1 sequence (looked up) 1: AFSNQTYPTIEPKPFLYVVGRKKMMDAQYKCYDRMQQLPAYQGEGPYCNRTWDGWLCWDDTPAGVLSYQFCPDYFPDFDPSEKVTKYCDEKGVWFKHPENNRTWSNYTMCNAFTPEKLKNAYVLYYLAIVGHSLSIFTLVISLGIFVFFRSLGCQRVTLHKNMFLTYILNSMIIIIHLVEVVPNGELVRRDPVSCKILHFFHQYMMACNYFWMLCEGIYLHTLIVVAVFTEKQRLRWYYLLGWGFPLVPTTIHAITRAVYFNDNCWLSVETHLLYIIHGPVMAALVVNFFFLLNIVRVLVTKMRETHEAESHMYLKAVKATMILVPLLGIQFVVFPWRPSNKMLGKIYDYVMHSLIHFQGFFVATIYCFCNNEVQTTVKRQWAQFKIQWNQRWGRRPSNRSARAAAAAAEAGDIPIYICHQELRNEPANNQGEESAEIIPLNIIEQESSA
T1 sequence (looked up) 2: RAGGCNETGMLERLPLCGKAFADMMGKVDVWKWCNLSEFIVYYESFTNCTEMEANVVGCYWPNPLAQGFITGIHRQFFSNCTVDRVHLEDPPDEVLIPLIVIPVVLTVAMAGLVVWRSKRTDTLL

[2] = molecular target: T2, human calcitonin receptor (human, UniProt P30988 25-474); assay: SPA competition vs 125I-calcitonin, membranes with human CTR (Assay VII)
T2 construct: whole, on cells; Assay VII: membranes on SPA beads; also called hCT-R; hCTR
T2 sequence (looked up): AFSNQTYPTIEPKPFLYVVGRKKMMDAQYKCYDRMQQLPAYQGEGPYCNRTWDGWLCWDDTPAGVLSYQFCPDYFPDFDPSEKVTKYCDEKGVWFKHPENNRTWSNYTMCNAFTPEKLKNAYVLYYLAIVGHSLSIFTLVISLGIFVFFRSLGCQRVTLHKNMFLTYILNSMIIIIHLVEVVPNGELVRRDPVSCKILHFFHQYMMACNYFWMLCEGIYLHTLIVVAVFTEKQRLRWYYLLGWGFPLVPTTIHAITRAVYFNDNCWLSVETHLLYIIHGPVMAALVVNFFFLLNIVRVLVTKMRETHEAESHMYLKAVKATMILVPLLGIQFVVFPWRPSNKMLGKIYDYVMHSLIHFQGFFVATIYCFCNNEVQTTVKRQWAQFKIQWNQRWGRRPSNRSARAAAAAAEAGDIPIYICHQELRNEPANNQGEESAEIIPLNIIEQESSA
In short: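 SPA competition on membranes from BHK tk'ts 13 cells stably expressing human calcitonin receptor plus CRE-luciferase reporter; membranes 35 ng/μL final with 0.05 mg/well beads.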

B1: [N-terminal(C20 diacid-gGlu), des1, 9V, 15Q, 21Q, 23Y, 30S, 31G, 32T, 33Y]mimylin (peptide)
peptide: {C20 diacid-γGlu}-ASELSTAVLGRLSQELHELQTYPRTETGSGTY-NH2
SMILES: CC(C)C[C@H](NC(=O)[C@H](CCCNC(=N)N)NC(=O)CNC(=O)[C@H](CC(C)C)NC(=O)[C@@H](NC(=O)[C@H](C)NC(=O)[C@@H](NC(=O)[C@H](CO)NC(=O)[C@H](CC(C)C)NC(=O)[C@H](CCC(=O)O)NC(=O)[C@H](CO)NC(=O)[C@H](C)NC(=O)CC[C@H](NC(=O)CCCCCCCCCCCCCCCCCCC(=O)O)C(=O)O)[C@@H](C)O)C(C)C)C(=O)N[C@@H](CO)C(=O)N[C@@H](CCC(N)=O)C(=O)N[C@@H](CCC(=O)O)C(=O)N[C@@H](CC(C)C)C(=O)N[C@@H](Cc1c[nH]cn1)C(=O)N[C@@H](CCC(=O)O)C(=O)N[C@@H](CC(C)C)C(=O)N[C@@H](CCC(N)=O)C(=O)N[C@H](C(=O)N[C@@H](Cc1ccc(O)cc1)C(=O)N1CCC[C@H]1C(=O)N[C@@H](CCCNC(=N)N)C(=O)N[C@H](C(=O)N[C@@H](CCC(=O)O)C(=O)N[C@H](C(=O)NCC(=O)N[C@@H](CO)C(=O)NCC(=O)N[C@H](C(=O)N[C@@H](Cc1ccc(O)cc1)C(N)=O)[C@@H](C)O)[C@@H](C)O)[C@@H](C)O)[C@@H](C)O
notes: mimylin derivative; des1 = residue 1 deleted
IC50 [1]: 297 pM | IC50 [2]: 85 pM

B2: [N-terminal(C20 diacid-gGlu), des1, 4G, 9V, 12K, 15Q, 21Q, 23Y, 25P, 30S, 31G, 32T, 33Y]mimylin (peptide)
peptide: {C20 diacid-γGlu}-ASGLSTAVLGKLSQELHELQTYPPTETGSGTY-NH2
SMILES: CC(C)C[C@H](NC(=O)CNC(=O)[C@H](CO)NC(=O)[C@H](C)NC(=O)CC[C@H](NC(=O)CCCCCCCCCCCCCCCCCCC(=O)O)C(=O)O)C(=O)N[C@@H](CO)C(=O)N[C@H](C(=O)N[C@@H](C)C(=O)N[C@H](C(=O)N[C@@H](CC(C)C)C(=O)NCC(=O)N[C@@H](CCCCN)C(=O)N[C@@H](CC(C)C)C(=O)N[C@@H](CO)C(=O)N[C@@H](CCC(N)=O)C(=O)N[C@@H](CCC(=O)O)C(=O)N[C@@H](CC(C)C)C(=O)N[C@@H](Cc1c[nH]cn1)C(=O)N[C@@H](CCC(=O)O)C(=O)N[C@@H](CC(C)C)C(=O)N[C@@H](CCC(N)=O)C(=O)N[C@H](C(=O)N[C@@H](Cc1ccc(O)cc1)C(=O)N1CCC[C@H]1C(=O)N1CCC[C@H]1C(=O)N[C@H](C(=O)N[C@@H](CCC(=O)O)C(=O)N[C@H](C(=O)NCC(=O)N[C@@H](CO)C(=O)NCC(=O)N[C@H](C(=O)N[C@@H](Cc1ccc(O)cc1)C(N)=O)[C@@H](C)O)[C@@H](C)O)[C@@H](C)O)[C@@H](C)O)C(C)C)[C@@H](C)O
notes: as for B1
IC50 [1]: 720 pM | IC50 [2]: 651 pM

B3: [N-terminal(C20 diacid-gGlu), des1, 4G, 15Q, 21Q, 23Y, 30S, 31Q, 32T, 33Y]mimylin (peptide)
peptide: {C20 diacid-γGlu}-ASGLSTAALGRLSQELHELQTYPRTETGSQTY-NH2
SMILES: CC(C)C[C@H](NC(=O)CNC(=O)[C@H](CO)NC(=O)[C@H](C)NC(=O)CC[C@H](NC(=O)CCCCCCCCCCCCCCCCCCC(=O)O)C(=O)O)C(=O)N[C@@H](CO)C(=O)N[C@H](C(=O)N[C@@H](C)C(=O)N[C@@H](C)C(=O)N[C@@H](CC(C)C)C(=O)NCC(=O)N[C@@H](CCCNC(=N)N)C(=O)N[C@@H](CC(C)C)C(=O)N[C@@H](CO)C(=O)N[C@@H](CCC(N)=O)C(=O)N[C@@H](CCC(=O)O)C(=O)N[C@@H](CC(C)C)C(=O)N[C@@H](Cc1c[nH]cn1)C(=O)N[C@@H](CCC(=O)O)C(=O)N[C@@H](CC(C)C)C(=O)N[C@@H](CCC(N)=O)C(=O)N[C@H](C(=O)N[C@@H](Cc1ccc(O)cc1)C(=O)N1CCC[C@H]1C(=O)N[C@@H](CCCNC(=N)N)C(=O)N[C@H](C(=O)N[C@@H](CCC(=O)O)C(=O)N[C@H](C(=O)NCC(=O)N[C@@H](CO)C(=O)N[C@@H](CCC(N)=O)C(=O)N[C@H](C(=O)N[C@@H](Cc1ccc(O)cc1)C(N)=O)[C@@H](C)O)[C@@H](C)O)[C@@H](C)O)[C@@H](C)O)[C@@H](C)O
notes: as for B1
IC50 [1]: 131 pM | IC50 [2]: 51 pM

B4: [N-terminal(C20 diacid-gGlu-2xOEG), des1, 30S, 31G]mimylin (peptide)
peptide: {C20 diacid-γGlu-AEEA-AEEA}-ASELSTAALGRLSAELHELATLPRTETGSGSP-NH2
notes: mimylin derivative; des1 = residue 1 deleted; also called Ex. #42; 42
IC50 [1]: 159 pM | IC50 [2]: 50 pM
